Experimental data published in patent US20170192000A1 (Hoffmann-La Roche, published 2017).

Biological target: T1, Human li p10 (human)
T1 construct: also called Ii p10; li p10 peptide
T1 chain: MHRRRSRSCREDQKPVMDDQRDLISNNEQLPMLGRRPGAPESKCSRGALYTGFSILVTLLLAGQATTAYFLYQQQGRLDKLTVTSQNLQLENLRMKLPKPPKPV
Assay: flow cytometry on fixed and permeabilised human PBMC treated with Cathepsin S inhibitor 1
Experimental: FIG. 1: Detection of Ii p10 expression on B cells and T cells using a neoepitope antibody. PBMCs isolated from blood donation of a healthy donor (R213) were incubated for 20 h with increasing concentrations of Cathepsin S inhibitor 1 or vehicle. Ii p10 detection on B cells (CD20+) and T cells (CD3+) was determined by flow cytometry using a different neoepitope antibody 7B8 (black).

- binding result: binds
B1: anti li p10 antibody 7B8 (antibody, V domains shown)
VH: QSLEESGGRLVTPGTPLTLTCTVSGIDLSTYAMTWVRQAPGKGLEWIGIIYNNGVVVYASWAKGRFTISKTSTTVDLKMTSPTTEDTATYFCCRGYYDGSVNVWGPGTLVTVSL
VL: QVLTQTASSVSAVVGGTVTISCQSSQSVYNDNVLSWFQQKPGQPPKLLIYLASTLASGVPSRFSGSGSGTQFTLTISDLECDDAAAYYCLGGYTGDMYAFGGGTEVVV
notes: Used unlabeled at 10 ug/mL and detected with PE-conjugated goat anti-rabbit IgG; also called anti-p10 antibody
